Assay results published in patent publication US20260275280A1, “DIRECTED DIFFERENTIATION PROTOCOLS TO DERIVE BONE FIDE SPINAL SENSORY INTERNEURONS” (THE REGENTS OF THE UNIVERSITY OF CALIFORNIA, priority 2022, published 2026).
“Also recorded” adds a separate entry of the source.

What was measured:
Assay type in all cases: cell-based, mouse
[1] = test system: mESCs-derived NMPs / NPCs; assay: Bulk RNA-Seq differential expression and qRT-PCR after RA or RA+BMP4 treatment; details: AGN193109 added in 10 molar excess with the RA
Method: Bulk-RNA sequencing and data processing: Total cell lysate was obtained in buffer RLT (Qiagen) at different time points from three independent differentiations (biological replicates) conducted parallelly. RNA extraction was performed using RNeasy mini kit (Qiagen) and the quality was determined using Agilent Technologies 2100 Bioanalyzer and only samples with a RIN score >8.0 were sequenced. Stranded libraries were constructed using Universal plus mRNA sequencing kit (NuGEN) and sequenced onto 2 lanes of NovaseqS1 to generate 30 million reads/sample. Obtained reads were aligned to the latest mouse reference genome (mm10) using the STAR spliced read aligner. Pearson correlation and principal component analysis (PCA) was performed to determine the similarities among the samples and replicates. Differentially expressed genes were identified using DESeq and EdgeR package on R platform. The candidate genes were selected using cutoff false discovery rate (FDR <0.05) and log fold change (>2). Differentially expressed gene lists were further subjected to Enrichr, Metascape (Zhou et al., 2019) and DAVID functional annotation tools to identify enriched gene ontology (GO) categories.
(§1) Quantitative (a) RT-PCR analysis: RNA was isolated with RNeasy Mini Kit (Qiagen, cat no. 74104), and converted to cDNA using Superscript IV First Strand Synthesis kit (Thermo Fisher Scientific). qRT-PCR was performed using SYBR Green PCR Master Mix (Applied Biosystems) on Roche 480 Lightcycler (Roche). The relative fold expression was calculated using 2-AACt method of comparing the expression of the target gene with that of the housekeeping gene glyceraldehyde 3-phosphate dehydrogenase (Gapdh). All experiments were repeated at least 2-3 times (technical replicates) from at least two independent differentiations (biological replicates), and data is represented as mean±SEM.
We took advantage of the directed differentiation protocols to investigate the unresolved mechanisms by which RA and BMP direct dI fate specification. To further validate the use of a stem cell model, we first assessed the genetic basis of the fate decisions mediated by RA signaling. During the 24 hr pulse of RA at day 3, Pax3 levels gradually increase, while T expression concomitantly declines (FIG. 12A). […] To identify the transcriptional changes occurring during this first commitment step, we performed bulk RNA-Seq at day 3 (NMP state), day 3.25 (early transcriptional response to RA) and day 4 (dP state1) (FIG. 11B).
We hypothesized that the addition of BMP4 to NPCs in dP state1, directs them to a more dorsal dP state, i.e. dP state2 (FIG. 11A). To define the transcriptional changes occurring after BMP4 addition, we performed bulk RNA-Seq at day 4 (dP state1), day 4.25 (early transcriptional response to RA+BMP4) and at day 5 (dP state2) (FIG. 4A). […] 78 genes, out of 411, were common between both time points (FIGS. 4B, 13B). Focusing on these common genes, we identified enriched functional processes using GO analyses. The GO terms included the BMP signaling pathway (FIG. 4C, Table 3), confirming that the analysis identified BMP responsive genes.

[2] = test system: Wnt/β-catenin signaling; assay: Inhibition of Wnt/β-catenin signaling during dI differentiation (IHC and RT-qPCR at day 9)
Method: (§2) The mouse ESC line, MM13, was routinely maintained in ES cell media (DMEM+20% FBS) with 100u/ml of mouse leukocyte inducing factor (LIF). […] To prepare cells for the differentiation, ESC colonies were dissociated with 0.25% trypsin and plated on gelatin coated plates at 1:10 dilution to reduce MEF transfer. Cells cultured on gelatin coated plates and allowed to proliferate for 1-2 days. To initiate differentiation, cells were plated on 0.1% gelatin coated 24-well CellBIND dishes (Corning) at 20,000 cells/ml density in 0.5 ml/well N2/B27 medium that contains 10 ng/ml basic fibroblast growth factor (bFGF). The N2/B27 medium contains 1:1 portions of Advanced Dulbecco's modified Eagle Media (DMEM) F12 (Hyclone) and Neurobasal media (Thermo Fisher Scientific) supplemented with 0.5×N2, 1×B27 supplement (with Vitamin A), 2 mM L-glutamine, 0.1 mM 2-mercaptoethanol (ME), and 1% BSA. On day 1, small colonies of cells can be observed attached to the bottom of the wells. On day 2, cells were supplemented with 10 ng/ml bFGF and 5 μM CHIR99021 for 24 hours to induce a neuromesodermal identity (Gouti et al., 2014). On day 3, media was changed as follows: for protocol 1, cells were exposed to 100 nM RA for 48 hrs. For protocol 2, 10 ng/ml human recombinant BMP4 (Thermo Fisher Scientific) was added concomitantly with 100 nM RA (RA+BMP4) for 48 hrs. For protocol 3, cells were exposed to 100 nM RA for 24 hrs, followed by a pulse of RA+BMP4 for another 24 hours. To induce terminal differentiation in all three conditions, the medium containing growth factors was replaced with basic N2/B27 medium at day 5, and cell allowed to differentiate to day 9. At the end of the differentiation, the cultures were fixed for immunohistochemical analysis or lysed to obtain RNA for RNA-Seq or quantitative reverse transcriptase PCR analysis.
Immunohistochemistry: For 2d differentiations, adherent cultures were first washed with 1×PBS and fixed with fresh cold 4% PFA for 10 minutes in the well. Following fixation, cultures were washed twice with 1×PBS to remove any remaining PFA. Cells were blocked with 1×PBS with 1% heat inactivated horse serum for 1 hour and primary antibodies are added in the blocking solution for an overnight incubation at 4C. Following washes, species appropriate secondary antibodies (Jackson Immuno Research Laboratories) were added in 1× PBT (PBS+0.1% […]) for 1 hr. The cultures were then washed with 1× PBT to remove traces of secondary antibodies and counterstained with DAPI to stain nuclei. Plates were then imaged on Zeiss LSM800 inverted confocal microscope at 10× magnification.
as §1
To assess the role of canonical Wnt signaling in dI fate specification, we added endo-IWR1 (IWR1e), a small molecule inhibitor which blocks p-catenin function (Chen et al., 2009) to dPs from day 4-6 (FIG. 5A). By day 9, the RA+BMP4 condition robustly induces dlis-dI3s (FIG. 5F-51, 5N-5P).

[3] = test system: mESCs derived spinal NPCs; assay: Sufficiency of Wnt ligands or CHIR for dI fates (RT-qPCR at day 9); details: for identity of the BMP4-mediated dI fates (Lhx2, Foxd3, IsI2): RA+BMP4 protocol, Wnts 100 ng/ml or CHIR 5 μM for 24 hrs at day 5; for induction of BMP4 dependent dI fates (Lhx2, Foxd3, IsI1): added with RA at day 4 for 24 hrs, Wnts 100 ng/ml, CHIR 5 μM
Method: as §2, §1
We assessed these models, first by determining the effect of canonical Wnts (Wnt1, Wnt2, and Wnt3a), a non-canonical Wnt (Wnt9b) and a small molecule Wnt agonist (CHIR99021) on dI identity in the RA±BMP4 protocols. When Wnts were added in combination with RA, they were unable to induce the dorsal-most dIs by day 9 (FIG. 14A). […] Thus, Wnts are not sufficient to direct dI fate identity.

[4] = inhibitor added to RA+BMP4 (protocol 3) from day 4, 48 hours, day 9

## Cc1ccc(C2=CCC(C)(C)c3ccc(C#Cc4ccc(C(=O)O)cc4)cc32)cc1 [AGN193109]
[1]
  upregulation of the RA-induced genes: not upregulated

## O=C(Nc1cccc2cccnc12)c1ccc(N2C(=O)[C@@H]3[C@H](C2=O)[C@@H]2C=C[C@H]3C2)cc1 [IWR1e]
[2]; [4]
  dI1 and dI2 differentiation: loss of dI1s and dI2s; also recorded: dramatic reduction in the dI1 and dI2 populations; also recorded: most strongly suppresses the differentiation of the BMP4-dependent dI1/dI2s
  dI3 differentiation: dI3 differentiation was less affected; also recorded: modest increase in dI3s; also recorded: more modest effect on dI3s
  dI4, dI5, dI6 fates: no suppression of Pax2+dI4/dI6 and Lmx1b+dI5 fates; also recorded: concomitant increases in dI4, dI5 and dI6s; also recorded: increase in the expression of dI4-dI6 specific genes
[2]; inhibitor added to RA+BMP4 condition
  dP markers Pax3, Pax7, Olig3: did not erode Pax3+pan-dorsal identity or Pax7 expression, but nevertheless did suppress Olig3; also recorded: prevents both the suppression of Pax7+dPs and induction of Olig3+dPs

B1: Wnt1: human recombinant Wnt1, canonical Wnt (protein, UniProt P04628 28-370, looked up)
Proto-oncogene Wnt-1: ANSSGRWWGIVNVASSTNLLTDSKSLQLVLEPSLQLLSRKQRRLIRQNPGILHSVSGGLQSAVRECKWQFRNRRWNCPTAPGPHLFGKIVNRGCRETAFIFAITSAGVTHSVARSCSEGSIESCTCDYRRRGPGGPDWHWGGCSDNIDFGRLFGREFVDSGEKGRDLRFLMNLHNNEAGRTTVFSEMRQECKCHGMSGSCTVRTCWMRLPTLRAVGDVLRDRFDGASRVLYGNRGSNRASRAELLRLEPEDPAHKPPSPHDLVYFEKSPNFCTYSGRLGTAGTAGRACNSSSPALDGCELLCCGRGHRTRTQRVTERCNCTFHWCCHVSCRNCTHTRVLHECL
[3]
  identity of the BMP4-mediated dI fates (Lhx2, Foxd3, IsI2): no significant effect
  induction of BMP4 dependent dI fates (Lhx2, Foxd3, IsI1): neither canonical Wnts (Wnt1, Wnt2, Wnt3a, Wnt4, all at 100 ng/ml) nor a non-canonical Wnt ligand (Wnt9b) induce the BMP4 dependent dI fates

B2: Wnt3a: human recombinant Wnt3a, canonical Wnt (protein, UniProt P56704 19-352, looked up)
Protein Wnt-3a: SYPIWWSLAVGPQYSSLGSQPILCASIPGLVPKQLRFCRNYVEIMPSVAEGIKIGIQECQHQFRGRRWNCTTVHDSLAIFGPVLDKATRESAFVHAIASAGVAFAVTRSCAEGTAAICGCSSRHQGSPGKGWKWGGCSEDIEFGGMVSREFADARENRPDARSAMNRHNNEAGRQAIASHMHLKCKCHGLSGSCEVKTCWWSQPDFRAIGDFLKDKYDSASEMVVEKHRESRGWVETLRPRYTYFKVPTERDLVYYEASPNFCEPNPETGSFGTRDRTCNVSSHGIDGCDLLCCGRGHNARAERRREKCRCVFHWCCYVSCQECTRVYDVHTCK
[3]
  identity of the BMP4-mediated dI fates (Lhx2, Foxd3, IsI2): no significant effect
  induction of BMP4 dependent dI fates (Lhx2, Foxd3, IsI1): neither canonical Wnts (Wnt1, Wnt2, Wnt3a, Wnt4, all at 100 ng/ml) nor a non-canonical Wnt ligand (Wnt9b) induce the BMP4 dependent dI fates

B3: Wnt2: human recombinant Wnt2, canonical Wnt (protein, UniProt P09544 26-360, looked up)
Protein Wnt-2: SWWYMRATGGSSRVMCDNVPGLVSSQRQLCHRHPDVMRAISQGVAEWTAECQHQFRQHRWNCNTLDRDHSLFGRVLLRSSRESAFVYAISSAGVVFAITRACSQGEVKSCSCDPKKMGSAKDSKGIFDWGGCSDNIDYGIKFARAFVDAKERKGKDARALMNLHNNRAGRKAVKRFLKQECKCHGVSGSCTLRTCWLAMADFRKTGDYLWRKYNGAIQVVMNQDGTGFTVANERFKKPTKNDLVYFENSPDYCIRDREAGSLGTAGRVCNLTSRGMDSCEVMCCGRGYDTSHVTRMTKCGCKFHWCCAVRCQDCLEALDVHTCKAPKNADWTTAT
[3]
  identity of the BMP4-mediated dI fates (Lhx2, Foxd3, IsI2): no significant effect
  induction of BMP4 dependent dI fates (Lhx2, Foxd3, IsI1): neither canonical Wnts (Wnt1, Wnt2, Wnt3a, Wnt4, all at 100 ng/ml) nor a non-canonical Wnt ligand (Wnt9b) induce the BMP4 dependent dI fates

B4: Wnt9b: mouse recombinant Wnt9b, non-canonical Wnt ligand (protein, UniProt O35468 24-359, looked up)
Protein Wnt-9b: AAYFGLTGREVLTPFPGLGTAAAPAQAGAHLKQCDLLKLSRRQKQLCRREPGLAETLRDAAHLGLLECQFQFRQERWNCSLEGRTGLLQRGFKETAFLYAVSAAALTHALARACSAGRMERCTCDDSPGLESRQAWQWGVCGDNLKYSTKFLSNFLGPKRGSKDLRARADAHNTHVGIKAVKSGLRTTCKCHGVSGSCAVRTCWKQLSPFRETGQVLKLRYDTAVKVSSATNEALGRLELWAPAKPGGPAKGLAPRPGDLVYMEDSPSFCRPSKYSPGTAGRVCSRDSSCSSLCCGRGYDTQSRMVVFSCHCQVQWCCYVECQQCAQQELVYTCKR
[3]
  identity of the BMP4-mediated dI fates (Lhx2, Foxd3, IsI2): no significant effect
  induction of BMP4 dependent dI fates (Lhx2, Foxd3, IsI1): neither canonical Wnts (Wnt1, Wnt2, Wnt3a, Wnt4, all at 100 ng/ml) nor a non-canonical Wnt ligand (Wnt9b) induce the BMP4 dependent dI fates

B5: Wnt4: mouse recombinant Wnt4 (protein, UniProt P22724 23-351, looked up)
Protein Wnt-4: SNWLYLAKLSSVGSISEEETCEKLKGLIQRQVQMCKRNLEVMDSVRRGAQLAIEECQYQFRNRRWNCSTLDSLPVFGKVVTQGTREAAFVYAISSAGVAFAVTRACSSGELEKCGCDRTVHGVSPQGFQWSGCSDNIAYGVAFSQSFVDVRERSKGASSSRALMNLHNNEAGRKAILTHMRVECKCHGVSGSCEVKTCWRAVPPFRQVGHALKEKFDGATEVEPRRVGSSRALVPRNAQFKPHTDEDLVYLEPSPDFCEQDIRSGVLGTRGRTCNKTSKAIDGCELLCCGRGFHTAQVELAERCGCRFHWCCFVKCRQCQRLVEMHTCR
[3]
  identity of the BMP4-mediated dI fates (Lhx2, Foxd3, IsI2): no significant effect
  induction of BMP4 dependent dI fates (Lhx2, Foxd3, IsI1): neither canonical Wnts (Wnt1, Wnt2, Wnt3a, Wnt4, all at 100 ng/ml) nor a non-canonical Wnt ligand (Wnt9b) induce the BMP4 dependent dI fates
